Where “and” joins values, the source holds several entries; their conditions need not be identical. Equal values may be shown once. One block for each binder: values may come before it.
Legend:
[1] = biological target: the molecule itself; assay: crystal structure
[2] = biological target: T1, MlaE (E. coli, UniProt P64606 1-260); assay: affinity purification with mass spectrometry
T1 sequence (looked up): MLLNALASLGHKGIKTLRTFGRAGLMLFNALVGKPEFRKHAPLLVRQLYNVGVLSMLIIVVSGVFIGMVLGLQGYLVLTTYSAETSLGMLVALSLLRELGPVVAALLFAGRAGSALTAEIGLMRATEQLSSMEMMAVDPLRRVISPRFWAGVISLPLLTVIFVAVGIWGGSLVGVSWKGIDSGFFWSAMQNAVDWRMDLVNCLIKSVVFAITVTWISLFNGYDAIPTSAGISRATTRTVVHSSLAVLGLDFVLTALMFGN

[3] = biological target: the molecule itself; assay: cryo-EM structure
[4] = biological target: T2, MlaA with C-terminal 6xHis tag (E. coli, UniProt P76506 18-251); assay: affinity purification with mass spectrometry
T2 sequence (looked up): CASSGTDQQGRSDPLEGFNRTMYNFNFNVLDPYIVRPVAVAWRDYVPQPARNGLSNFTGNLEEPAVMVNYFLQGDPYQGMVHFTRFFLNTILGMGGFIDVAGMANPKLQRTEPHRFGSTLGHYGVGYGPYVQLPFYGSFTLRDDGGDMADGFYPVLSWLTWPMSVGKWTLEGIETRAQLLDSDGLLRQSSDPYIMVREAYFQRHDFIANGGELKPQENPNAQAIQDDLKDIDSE

[5] = biological target: the molecule itself; assay: negative-stain EM

B1: MlaD core MCE domain (residues 32-140) (domain or fragment, E. coli, UniProt P64604 32-140, looked up)
chain: TSIRTEPTYTLYATFDNIGGLKARSPVSIGGVVVGRVADITLDPKTYLPRVTLEIEQRYNHIPDTSSLSIRTSGLLGEQYLALNVGFEDPELGTAILKDGDTIQDTKSA
- stoichiometry N [1]: 7 and 14

- binding result [2]: binds
B2: His-tagged MlaD, co-expressed from the mlaFEDCB operon (natural protein, E. coli, UniProt P64604 1-183, looked up)
chain: MQTKKNEIWVGIFLLAALLAALFVCLKAANVTSIRTEPTYTLYATFDNIGGLKARSPVSIGGVVVGRVADITLDPKTYLPRVTLEIEQRYNHIPDTSSLSIRTSGLLGEQYLALNVGFEDPELGTAILKDGDTIQDTKSAMVLEDLIGQFLYGSKGDDNKNSGDAPAAAPGNNETTEPVGTTK

B3: PqiB periplasmic domain (residues 39-546) (domain or fragment, E. coli, UniProt P43671 39-546, looked up)
chain: SHQGPEVTLITANAEGIEGGKTTIKSRSVDVGVVESATLADDLTHVEIKARLNSGMEKLLHKDTVFWVVKPQIGREGISGLGTLLSGVYIELQPGAKGSKMDKYDLLDSPPLAPPDAKGIRVILDSKKAGQLSPGDPVLFRGYRVGSVETSTFDTQKRNISYQLFINAPYDRLVTNNVRFWKDSGIAVDLTSAGMRVEMGSLTTLLSGGVSFDVPEGLDLGQPVAPKTAFVLYDDQKSIQDSLYTDHIDYLMFFKDSVRGLQPGAPVEFRGIRLGTVSKVPFFAPNMRQTFNDDYRIPVLIRIEPERLKMQLGENADVVEHLGELLKRGLRGSLKTGNLVTGALYVDLDFYPNTPAITGIREFNGYQIIPTVSGGLAQIQQRLMEALDKINKLPLNPMIEQATSTLSESQRTMKNLQTTLDSMNKILASQSMQQLPTDMQSTLRELNRSMQGFQPGSAAYNKMVADMQRLDQVLRELQPVLKTLNEKSNALVFEAKDKKDPEPKRAKQ
- stoichiometry N [3]: 6

- stoichiometry N [4]: ~1
B4: OmpF (natural protein, E. coli (endogenous in Rosetta 2 (DE3)), UniProt P02931 23-362, looked up)
chain: AEIYNKDGNKVDLYGKAVGLHYFSKGNGENSYGGNGDMTYARLGFKGETQINSDLTGYGQWEYNFQGNNSEGADAQTGNKTRLAFAGLKYADVGSFDYGRNYGVVYDALGYTDMLPEFGGDTAYSDDFFVGRVGGVATYRNSNFFGLVDGLNFAVQYLGKNERDTARRSNGDGVGGSISYEYEGFGIVGAYGAADRTNLQEAQPLGNGKKAEQWATGLKYDANNIYLAANYGETRNATPITNKFTNTSGFANKTQDVLLVAQYQFDFGLRPSIAYTKSKAKDVEGIGDVDLVNYFEVGATYYFNKNMSTYVDYIINQIDSDNKLGVGSDDTVAVGIVYQF

B5: YebT, full length, C-terminal 6xHis tag (natural protein, E. coli, UniProt P76272 1-877, looked up)
chain: MSQETPASTTEAQIKNKRRISPFWLLPFIALMIASWLIWDSYQDRGNTVTIDFMSADGIVPGRTPVRYQGVEVGTVQDISLSDDLRKIEVKVSIKSDMKDALREETQFWLVTPKASLAGVSGLDALVGGNYIGMMPGKGKEQDHFVALDTQPKYRLDNGDLMIHLQAPDLGSLNSGSLVYFRKIPVGKVYDYAINPNKQGVVIDVLIERRFTDLVKKGSRFWNVSGVDANVSISGAKVKLESLAALVNGAIAFDSPEESKPAEAEDTFGLYEDLAHSQRGVIIKLELPSGAGLTADSTPLMYQGLEVGQLTKLDLNPGGKVTGEMTVDPSVVTLLRENTRIELRNPKLSLSDANLSALLTGKTFELVPGDGEPRKEFVVVPGEKALLHEPDVLTLTLTAPESYGIDAGQPLILHGVQVGQVIDRKLTSKGVTFTVAIEPQHRELVKGDSKFVVNSRVDVKVGLDGVEFLGASASEWINGGIRILPGDKGEMKASYPLYANLEKALENSLSDLPTTTVSLSAETLPDVQAGSVVLYRKFEVGEVITVRPRANAFDIDLHIKPEYRNLLTSNSVFWAEGGAKVQLNGSGLTVQASPLSRALKGAISFDNLSGASASQRKGDKRILYASETAARAVGGQITLHAFDAGKLAVGMPIRYLGIDIGQIQTLDLITARNEVQAKAVLYPEYVQTFARGGTRFSVVTPQISAAGVEHLDTILQPYINVEPGRGNPRRDFELQEATITDSRYLDGLSIIVEAPEAGSLGIGTPVLFRGLEVGTVTGMTLGTLSDRVMIAMRISKRYQHLVRNNSVFWLASGYSLDFGLTGGVVKTGTFNQFIRGGIAFATPPGTPLAPKAQEGKHFLLQESEPKEWREWGTALPK
- stoichiometry N [5]: 6

Reference: publication PMC5467742 (Cell, 2017)
